Source: US20220331394A1 (SUSAVION BIOSCIENCES, published 2022)
No end group written: not given here.

T1: recombinant rat CLEC10A (rat, UniProt P49301 59-306, limits assumed)
T1 construct: construct not described; also called CLEC10A from rat
T1 sequence (looked up): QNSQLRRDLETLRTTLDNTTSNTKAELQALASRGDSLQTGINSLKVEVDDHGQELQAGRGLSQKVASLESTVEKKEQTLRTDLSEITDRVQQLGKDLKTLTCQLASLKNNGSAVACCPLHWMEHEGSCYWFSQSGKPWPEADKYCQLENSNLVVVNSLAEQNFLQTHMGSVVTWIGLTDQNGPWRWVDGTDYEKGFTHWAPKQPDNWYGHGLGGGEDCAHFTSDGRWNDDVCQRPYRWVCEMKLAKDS

T2: IL-4R (human, UniProt P24394 26-232, limits assumed)
T2 construct: construct not described; also called receptor for IL-4
T2 sequence (looked up): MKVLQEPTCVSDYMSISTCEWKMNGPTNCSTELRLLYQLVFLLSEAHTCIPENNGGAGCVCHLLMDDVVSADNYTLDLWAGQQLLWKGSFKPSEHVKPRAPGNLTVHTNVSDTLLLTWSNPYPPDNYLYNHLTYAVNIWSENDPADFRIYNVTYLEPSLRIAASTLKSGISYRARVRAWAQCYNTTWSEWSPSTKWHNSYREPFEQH

T3: DC-SIGN (human, UniProt Q9NNX6 62-404, limits assumed)
T3 construct: construct not described; also called CD209; dendritic cell-specific intercellular adhesion molecule (ICAM)-3 grabbing non-integrin
T3 sequence (looked up): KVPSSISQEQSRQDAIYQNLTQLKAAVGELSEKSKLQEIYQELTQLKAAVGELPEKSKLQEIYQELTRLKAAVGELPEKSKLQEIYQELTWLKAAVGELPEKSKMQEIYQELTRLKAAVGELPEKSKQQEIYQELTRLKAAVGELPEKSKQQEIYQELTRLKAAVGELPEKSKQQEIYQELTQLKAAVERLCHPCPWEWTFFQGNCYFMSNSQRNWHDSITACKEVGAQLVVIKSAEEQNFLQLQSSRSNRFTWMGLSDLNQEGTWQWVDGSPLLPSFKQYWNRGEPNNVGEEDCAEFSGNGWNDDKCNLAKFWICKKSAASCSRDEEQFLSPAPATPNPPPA

T4: recombinant human asialoglycoprotein receptor 1 (ASGPR-1) (human, UniProt P07306 62-291)
T4 construct: extracellular domain; Bought recombinant receptor; also called Ashwell-Morell receptor; CLEC4H1
T4 sequence (looked up): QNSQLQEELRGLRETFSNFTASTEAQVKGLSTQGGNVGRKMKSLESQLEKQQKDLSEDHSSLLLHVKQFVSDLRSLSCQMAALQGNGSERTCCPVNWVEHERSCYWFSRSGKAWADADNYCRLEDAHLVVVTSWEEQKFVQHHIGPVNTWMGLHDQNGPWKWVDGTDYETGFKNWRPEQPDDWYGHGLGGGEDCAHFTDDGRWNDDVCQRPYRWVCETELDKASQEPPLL

T5: recombinant human Ca2+-dependent lectin-type receptor family member 10A (CLEC10A) (human, UniProt Q8IUN9 61-316)
T5 construct: extracellular domain; Bought recombinant receptor; also called CD301; macrophage galactose-type lectin
T5 sequence (looked up): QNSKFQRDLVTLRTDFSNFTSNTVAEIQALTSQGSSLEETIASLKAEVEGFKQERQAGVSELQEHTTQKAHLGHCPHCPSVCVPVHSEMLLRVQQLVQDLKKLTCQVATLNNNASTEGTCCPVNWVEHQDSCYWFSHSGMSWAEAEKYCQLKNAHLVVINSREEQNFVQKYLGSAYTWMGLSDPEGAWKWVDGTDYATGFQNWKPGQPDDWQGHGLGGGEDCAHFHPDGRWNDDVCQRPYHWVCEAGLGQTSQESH


Columns and labels:
recombinant rat CLEC10A = target: T1, recombinant rat CLEC10A; assay: solid-phase competition with biotinylated GalNAc-PAA
Experimental: FIGS. 3A-3D. sv6D as a mimetic of GalNAc. (FIG. 3A) Inhibition by sv6D of binding of multivalent GalNAc-PAA (GlycoTech Corp., Frederick, Md.) to recombinant rat CLEC10A and human ASGPR-1. The reaction mixture included approximately 200 pmoles of biotinylated GalNc-PAA and increasing concentrations of peptide. The figure includes average values from 3 independent experiments. (FIG. 3B) Biotinylated sv6D or GalNAc-PAA were incubated with rabbit antiserum raised against the 6D sequence (NQHTPR) conjugated to keyhole limpet hemocyanin (KLH). Binding was detected with streptavidin-peroxidase conjugate. Similar data were obtained in 2 experiments. (FIG. 3C) Inhibition by EGTA of binding of sv6D (pattern) or svL4 (solid) to CLEC10A and ASGPR-1, respectively. EGTA (1 mM) was added to the final concentrations indicated to assays. Retention of bound CLEC10A was determined by incubation with biotinylated anti-CLEC10A (goat IgG, R&D Systems) and detection with streptavidin-peroxidase conjugate (light grey circle). Similar data were obtained in 3 experiments. (FIG. 3D) Binding of svL4 and sv6D to human recombinant CLEC10A and ASGPR-1 as a function of concentration of peptide in the assay. The figure is representative of 4 separate assays.
To further determine whether sv6D interacts with the actual sugar binding site, the ability of sv6D to compete with GalNAc-PAA for binding was assayed. […]

Siglec-1 = target: T6, Siglec-1 (human, UniProt Q9BZZ2 20-1641, limits assumed); assay: solid-phase binding assay with recombinant receptor
T6 construct: construct not described
Experimental: (§1) Binding Assays Solid-phase binding assays were performed with streptavidin-, protein A/G-, or Nickel-coated microtiter plates (Pierce). His-tagged or Fc-fusion recombinant receptors (R&D Systems, Minneapolis, Minn.) were reconstituted in PBS. Sufficient receptors were added to wells to saturate the coating. His-tagged receptors were added to each well at a 5-fold excess over the stated capacity of the Ni coating to minimize non-specific binding of the peptide. Wells were washed three times with binding buffer (25 mM Tris HCl, pH 7.4, 150 mM NaCl, 0.05% Tween-20) to remove unbound receptor and 50 μL of 2 μM biotinylated peptide in binding buffer were added and allowed to incubate for 1 h. The wells were washed four times with binding buffer and then incubated with 50 μL of 1 μg/mL streptavidin conjugated with peroxidase (Sigma-Aldrich) for 1 h. The wells were washed five times with binding buffer and 50 μL of peroxidase substrate (1-Step™ Ultra TMB, Pierce) were added. After several minutes to allow color development, the reaction was stopped with 50 μL 1 M H₃PO₄ and absorbance was measured at 450 nm. Bound streptavidin was quantitated by the specific activity of peroxidase (absorbance/ng protein conjugate/min) under the conditions of the assay.
(§2) Solid-phase binding assays were performed with recombinant human receptors. Three variations of the binding assay were used in this study, all of which allowed the arms of the tetravalent peptide to have full flexibility. (i) Biotinylated peptide was bound in microtiter wells coated with streptavidin and incubated with recombinant human receptors. After extensive washing, the bound receptor was measured by peroxidase conjugated to a receptor-specific antibody. (ii) The extracellular domains of receptors, which were fused with the Fc domain of immunoglobulin IgG, were bound in wells coated with protein A/G. Biotinylated peptide was incubated with the receptors and, after extensive washing, bound peptide was measured with streptavidin conjugated with peroxidase. Or (iii), recombinant receptors with a poly-His tag were bound to Nickel-coated wells and incubated with biotinylated peptide. svL4 and sv6D contain His residues (FIGS. 1A, 1C) and can bind to the Ni coating, which was minimized by adding sufficient poly-His-tagged receptor to saturate the Ni coating.

IL-4R = target: T2, IL-4R; assay: as above
Experimental: as §1, §2

CLEC9A = target: T7, CLEC9A (human, UniProt Q6UXN8 57-241); assay: as above
T7 construct: construct not described
Experimental: as §1, §2

CD44 = target: T8, CD44 (human, UniProt P16070 21-220, limits assumed); assay: as above
T8 construct: construct not described; also called receptor for hyaluronic acid
Experimental: as §1, §2

DC-SIGN = target: T3, DC-SIGN; assay: as above
Experimental: as §1, §2

[1] = target: T4, recombinant human asialoglycoprotein …; assay: solid-phase binding assay, double-reciprocal plot of binding vs. peptide concentration
Experimental: (§3) Binding was detected with streptavidin-peroxidase conjugate. Similar data were obtained in 2 experiments. (FIG. 3C) Inhibition by EGTA of binding of sv6D (pattern) or svL4 (solid) to CLEC10A and ASGPR-1, respectively. EGTA (1 mM) was added to the final concentrations indicated to assays. Retention of bound CLEC10A was determined by incubation with biotinylated anti-CLEC10A (goat IgG, R&D Systems) and detection with streptavidin-peroxidase conjugate (light grey circle). Similar data were obtained in 3 experiments. (FIG. 3D) Binding of svL4 and sv6D to human recombinant CLEC10A and ASGPR-1 as a function of concentration of peptide in the assay. The figure is representative of 4 separate assays.
as §1
(§4) Corresponding values for binding of svL4 to CLEC10A and ASGPR-1 of 0.24±0.04 μM and 0.21±0.03 μM, respectively, were obtained (FIG. 3D).

[2] = target: T5, recombinant human Ca2+-dependent …; assay: as above
Experimental: as §3, §1, §4

[3] = target: T4, recombinant human asialoglycoprotein …; assay: solid-phase binding assay with recombinant human receptor
Experimental: as §1, with “The wells were washed five times with binding buffer and 50 μL of peroxidase substrate (1-Step™ Ultra TMB, Pierce) were added.” left out
(§5) Solid-phase binding assays were performed with recombinant human receptors. […] After extensive washing, the bound receptor was measured by peroxidase conjugated to a receptor-specific antibody. […]

[4] = target: T5, recombinant human Ca2+-dependent …; assay: as above
Experimental: as §1, with “The wells were washed five times with binding buffer and 50 μL of peroxidase substrate (1-Step™ Ultra TMB, Pierce) were added.” left out
as §5

T7 sequence (Q6UXN8 57-241 limits assumed): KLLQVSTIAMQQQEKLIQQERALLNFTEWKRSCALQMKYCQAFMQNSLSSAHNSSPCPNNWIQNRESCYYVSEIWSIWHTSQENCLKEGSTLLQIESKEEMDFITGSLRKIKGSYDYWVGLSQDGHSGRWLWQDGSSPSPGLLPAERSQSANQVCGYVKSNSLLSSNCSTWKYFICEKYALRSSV
T8 sequence (P16070 21-220 limits assumed): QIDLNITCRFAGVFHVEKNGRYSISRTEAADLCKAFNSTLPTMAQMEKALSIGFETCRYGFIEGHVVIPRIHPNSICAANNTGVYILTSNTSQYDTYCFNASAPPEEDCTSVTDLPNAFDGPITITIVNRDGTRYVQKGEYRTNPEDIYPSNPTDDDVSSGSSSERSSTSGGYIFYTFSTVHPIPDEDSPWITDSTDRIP
T6 sequence (Q9BZZ2 20-1641 limits assumed): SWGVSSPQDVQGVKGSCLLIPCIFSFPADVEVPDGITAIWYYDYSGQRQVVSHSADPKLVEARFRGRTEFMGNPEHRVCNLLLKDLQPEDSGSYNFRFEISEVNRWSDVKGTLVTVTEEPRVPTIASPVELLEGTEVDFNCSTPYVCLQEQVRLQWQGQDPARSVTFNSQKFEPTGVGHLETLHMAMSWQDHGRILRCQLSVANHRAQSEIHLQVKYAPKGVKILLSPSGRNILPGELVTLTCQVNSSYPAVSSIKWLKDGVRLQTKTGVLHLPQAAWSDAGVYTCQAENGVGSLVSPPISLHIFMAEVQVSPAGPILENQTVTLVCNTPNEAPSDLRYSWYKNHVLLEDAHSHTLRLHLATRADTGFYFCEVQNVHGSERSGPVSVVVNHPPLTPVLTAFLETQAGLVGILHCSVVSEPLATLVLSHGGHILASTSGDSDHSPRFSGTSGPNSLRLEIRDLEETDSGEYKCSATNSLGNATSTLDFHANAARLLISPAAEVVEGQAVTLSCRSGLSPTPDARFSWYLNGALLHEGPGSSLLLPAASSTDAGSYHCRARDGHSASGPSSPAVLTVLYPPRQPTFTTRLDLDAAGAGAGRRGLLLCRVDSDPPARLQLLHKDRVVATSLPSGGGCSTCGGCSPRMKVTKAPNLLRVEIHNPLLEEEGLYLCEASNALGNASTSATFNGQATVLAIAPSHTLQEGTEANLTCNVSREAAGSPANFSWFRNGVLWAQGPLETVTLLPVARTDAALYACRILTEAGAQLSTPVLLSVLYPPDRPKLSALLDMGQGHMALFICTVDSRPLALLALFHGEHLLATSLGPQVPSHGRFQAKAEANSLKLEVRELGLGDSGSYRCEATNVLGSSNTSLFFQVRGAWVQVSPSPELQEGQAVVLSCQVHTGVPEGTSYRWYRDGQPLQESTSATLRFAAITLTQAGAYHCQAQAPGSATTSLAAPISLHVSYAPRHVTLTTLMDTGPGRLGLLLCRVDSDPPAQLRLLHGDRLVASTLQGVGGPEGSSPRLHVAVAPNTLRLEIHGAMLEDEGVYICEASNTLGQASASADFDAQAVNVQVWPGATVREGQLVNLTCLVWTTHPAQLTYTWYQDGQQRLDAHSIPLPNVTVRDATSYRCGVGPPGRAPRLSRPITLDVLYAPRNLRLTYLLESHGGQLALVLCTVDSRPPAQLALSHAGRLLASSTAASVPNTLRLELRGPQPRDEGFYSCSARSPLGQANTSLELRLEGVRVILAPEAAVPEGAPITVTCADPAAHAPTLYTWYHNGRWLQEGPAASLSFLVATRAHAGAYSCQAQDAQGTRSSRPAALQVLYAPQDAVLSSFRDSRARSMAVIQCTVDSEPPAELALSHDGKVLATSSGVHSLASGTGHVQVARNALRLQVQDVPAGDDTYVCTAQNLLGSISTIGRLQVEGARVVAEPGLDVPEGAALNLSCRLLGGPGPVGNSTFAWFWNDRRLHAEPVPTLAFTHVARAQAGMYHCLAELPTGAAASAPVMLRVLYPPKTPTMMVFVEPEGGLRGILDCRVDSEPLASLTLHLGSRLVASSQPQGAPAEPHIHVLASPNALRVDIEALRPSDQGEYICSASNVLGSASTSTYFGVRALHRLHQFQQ

Binder	binding result (recombinant rat CLEC10A)	binding result (Siglec-1)	binding result (IL-4R)	binding result (CLEC9A)	binding result (CD44)	binding result (DC-SIGN)	Kd [1] [nM]	Kd [2] [nM]	binding result [3]	binding result [4]
NQHTPRGGGS (also: tetravalent: four arms joined through GGGS linker to branched tri-lysine core, core C-terminus amide or biotinyl-lysinyl-amide, Tetravalent branched construct: four arms NQHTPR + GGGS linker on a tri-lysine core; Biotinylated in solid-phase assays; also called tetravalent peptide sv6D; C-terminal half of svL4) [sv6D]	binds	no binding (tested: 2 µM biotinylated peptide)	no binding (tested: 2 µM biotinylated peptide)	no binding (tested: 2 µM biotinylated peptide)	no binding (tested: 2 µM biotinylated peptide)	no binding (tested: 2 µM biotinylated peptide)	120	150	–	–
VQATQSNQHTPRGGGS (also: tetravalent: four arms joined through GGGS linker to branched tri-lysine core, core C-terminus amide or biotinyl-lysinyl-amide, the tie follows from svL4 being the 12-mer whose C-terminal 6-mer is sv6D (NQHTPR); also called tetravalent peptide svL4; full-length svL4) [svL4]	–	no binding (tested: 2 µM biotinylated peptide)	no binding (tested: 2 µM biotinylated peptide)	no binding (tested: 2 µM biotinylated peptide)	no binding (tested: 2 µM biotinylated peptide)	no binding (tested: 2 µM biotinylated peptide)	210	240	–	–
VQATQSGGGS (also: arms on branched tri-lysine core as for svL4, biotinylated at C-terminus of core in binding assays, also called N-terminal half of svL4) [svC1]	–	–	–	–	–	–	–	–	no binding (tested: 2 µM biotinylated peptide)	no binding (tested: 2 µM biotinylated peptide)
